Assay results from the nanobody polyreactivity screen of Harvey et al. (2022).

Test: yeast display, Sf9 membrane polyspecificity reagent, FACS + sequencing; frameworks hold sequencing errors
In short: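 A nanobody's polyreactivity label depends on the gate it was sorted from. Yeast display cells were stained with 10% biotinylated, detergent-solubilized Sf9 membrane reagent for 1 hour at 4 °C, enriched on streptavidin microbeads and sorted by FACS. The low and high (top ~1%) gates were set on anti-HA fluorescence for expression and streptavidin fluorescence for reagent binding.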

Sequence | polyreactivity (PSR sort gate)
QVQLVESGGGLVQAGGSLRLSCAASGRIFRRYVMGWYRQAPGKERELVARIRIRDSNTYYADSVKGRFTISRDNAKNTVYLQMNSLKPEDTAVYYCNADTWADRSTYDYWGQGTQVTVSS | low polyreactivity
QVQLVESGGGLVQAGGSLRLSCAASGRIFRSNGMGWYRQAPGKERELVAAITYRGGNTYYADSVKGRFTISRDNAKNTVYFQMNSLKPEDTAVYYCANQGVRRHYGYDYWGQGTQVTVSS | high polyreactivity
QVQLVESGGGLVQAGGSLRLSCAASGRIFRTKAMGWYRLAPGKERELVAAITFSGGGTYYADSVKGRFTISRDNAKNTVYLQMNSLKPEDTAVYYCATDWYYEYYYWGQGTQVTVSS | low polyreactivity
QVQLVESGGGLVQAGGSLRLSCAASGRIFRTNAMGWYRQAHGKEWELVAAITRGGTTNYADSVKGRFTISRDNAKNTVYLQMNSLKPEDTAVYYCAVDQGYVVRLAWIYGYWGQGTQVTVSS | low polyreactivity
QVQLVESGGGLVQAGGSLRLSCAASGRIFRTYAMGWYRQAPGKERELVDAISYSGGSTFYADSVKRRFTISRDNAKNTVYLQMNSLKPEYTAVYYCAADSRAKRYYWGQGTQVTVSS | high polyreactivity
QVQLVESGGGLVQAGGSLRLSCAASGRIFRTYTMGWYRQAPGKERELVAAISRSGASTYYADSVKGRFTISRDNAKNTVYLQMNSLKPEDTAVYYCAKLILSTALVSRPGVDYWGQGTQVTVSS | high polyreactivity
QVQLVESGGGLVQAGGSLRLSCAASGRIFRVNALGWYRQATRKERELVAGITQGDGSTYYADSVKGRFTISRDNAKNTVYLQMNSLKPEDTAVYYCAAEGFYTTGSPYSGGLDYWGQGTQVTVSS | low polyreactivity
QVQLVESGGGLVQAGGSLRLSCAASGRIFRVNAMGWYRQAPGKERELVAAINFSGTSTYYADSVKGRFTISRDNAKNTVYLQMNSLKPEDTAVYYCNALTTSNSGRFYYWGQGTQVTVSS | low polyreactivity
QVQLVESGGGLVQAGGSLRLSCAASGRIFRVNAMGWYRQAPGKERELVATITGSGGSTYYADSVKGRFTISRDNAKNTVYLQMNSLKPEDTAVYYCAAVSYWPTDRYYSWGQGTQVTVSS | low polyreactivity
QVQLVESGGGLVQAGGSLRLSCAASGRIFRVYAMGWYRQAPGKERELVAVISARGGNTYYADSVKGRFTISRDNAKNTVYLQMNSMKPEDTAVYYCAARGRMDYWGQGTQVTVSS | high polyreactivity
QVQLVESGGGLVQAGGSLRLSCAASGRIFRWNAMGWYRQAPGKERELVAAISRSGGSTYYADSVKRRFTISRDNAKNTVYLQMNSLKPEDTAVYYCNTRFSTFTAPGYYYWGQGTQVTVSS | high polyreactivity
QVQLVESGGGLVQAGGSLRLSCAASGRIFRWYAMGWNRQAPGQERELVAAITRGDITNYADSVKGRFTISRDNAKNTVYLQMNSLKPEDTAVYYCNAQWYDIYDYWGQGSQVTVSS | high polyreactivity
QVQLVESGGGLVQAGGSLRLSCAASGRIFRWYAMGWYRQAPGKEREIVAAITSSGGSTYYADSVKGRFTISRDNAKNTVYLQMNSLKPEDTAFYYCAALLYLGGSYSRGYYWGQGTQVTVSS | high polyreactivity
QVQLVESGGGLVQAGGSLRLSCAASGRIFRWYAMGWYRQAPGKERELVAAISYSGGSTYYADSVKGRFTISRDNAKNTVYLQMNRLKPEDTAVYYCNAVLYTPVYDGFDSWGQGTQVTVSS | high polyreactivity
QVQLVESGGGLVQAGGSLRLSCAASGRIFRWYAMGWYRQAPGKERELVATISSTGGSTYYADSVKGRFTISRDNAKNTVYLQMNSLKPEDTAVYYCAVDPRGHEGVRYNYWGQGTQVTVSS | low polyreactivity
QVQLVESGGGLVQAGGSLRLSCAASGRIFRYKAMGWYRQAPGKERELVAAISGSGGSTYYADSVKGRFTISRDNAKNTVYLQMNSLKPEDTAVYYCNALYWIFNHGGYDYWGQGTQVTVSS | low polyreactivity
QVQLVESGGGLVQAGGSLRLSCAASGRIFRYNAMGLYRQAPGKERELVAAISRGGSSTYYADSVKGRFTISRDNAKNTVYLQMNSLKPEDTAVYYCNARSVVREFNYWGQGTQVTVSS | high polyreactivity
QVQLVESGGGLVQAGGSLRLSCAASGRIFRYNAMGWYRQAPGKERELVAAISFSTTSPYYADSVKGRFTISRDNAKNTVYLQMNSLKPEDTAVYNCNTPGLPIDSEYDYWGQGTQVTVSS | low polyreactivity
QVQLVESGGGLVQAGGSLRLSCAASGRIFRYNAMGWYRQAPGKERELVAAISTSGTRTFYADSVKGRFTISRDNAMKTVYLQMNSVKPEDTAVYYCNKVAGPGKLGPYYYWGQGTQVTVSS | high polyreactivity
QVQLVESGGGLVQAGGSLRLSCAASGRIFRYNAMGWYRQAPGKERELVAAITNGGSTNYADSVKGRFTISRDNAKNTVYLQMNSLKPEDTAVYYCNAQGRRYSQRYYYWGQGTQVTVSS | high polyreactivity
QVQLVESGGGLVQAGGSLRLSCAASGRIFRYNAMGWYRQAPGKERELVASITSAGSTIYADSVKGRFTISRDNAKNTVYLQMNSLKPEDTAVYYCNKRRAYGYYLFDYWGQGTQVTVSS | high polyreactivity
QVQLVESGGGLVQAGGSLRLSCAASGRIFRYNAMGWYRQAPGKERELVATISRGGGSTYYADSVKGRFTISLDNAKNTVYLQMNSLKPEDTAVYYCATRYYQDIVGYSRYDYWGQGTQVTVSS | high polyreactivity

Sequence | polyreactivity (PSR sort gate)
QVQLVESGGGLVQAGGSLRLSCAASGRIFRYNTMGWYRQAHGKERELVAAIDRGSSTNYADSVKGRFTISRDNAKNTVYLQMNSLKPEDTAVYYCAARVFRPYGSLYDYWGQGTQVTVSS | high polyreactivity
QVQLVESGGGLVQAGGSLRLSCAASGRIFRYYAKGWYRQATGKERELVAAISWSGGSTYYADSVKGRFTISRDNAKNTVYLQMHSLKPEDTAVYYCNAAVTQFTHRWRRRITFDYWGQGTQVTVSS | high polyreactivity
QVQLVESGGGLVQAGGSLRLSCAASGRIFRYYAMGWYRPAPGKERELVAAITRSGGITYYADSVKGRFTISRDNAKNTVYLQLNSLKPEDTAVYYCAVRGAGWPSVRAFGYDYWGQGTQVTVSS | high polyreactivity
QVQLVESGGGLVQAGGSLRLSCAASGRIFRYYAMGWYRQAPGKEREFVAGISWRGSSTYYADSVKGRFTISRDNAKNTVYLQMNSLKPEDTAVYYCNRDQSNIPVTGGRFYYWGQGTQVTVSS | high polyreactivity
QVQLVESGGGLVQAGGSLRLSCAASGRIFRYYAMGWYRQAPGKERELVAAINSGGSTKYADSVKGRFTISRDNAKNTVYLQMNSLKPEDTAVYYCAAVYTPDSRYDYWGQGTQVTVSS | high polyreactivity
QVQLVESGGGLVQAGGSLRLSCAASGRIFRYYAMGWYRQAPGKERELVAAISDSSGSTYYADSVKGRFTISRDNAKNTVYLQMNSLKPEDTAVYYCRYYFGSGFYYWGQGTQVTVSS | high polyreactivity
QVQLVESGGGLVQAGGSLRLSCAASGRIFRYYAMGWYRQAPGKERELVAAISRGGSTNYADSVKGRFTISRDNAKNTVYLQMNSLKPEDTAVYYCAAVYHSRVWYGYDSKFEYWGQGTQVTVSS | high polyreactivity
QVQLVESGGGLVQAGGSLRLSCAASGRIFRYYAMGWYRQAPGKERELVAAISSRGGSTYYADSVKGRFTISRDNAKNSVYLQMNSLKPEDTAVYFCDKAVFYGPSERNYGLDYWGQGTQVTVSS | high polyreactivity
QVQLVESGGGLVQAGGSLRLSCAASGRIFRYYAMGWYRQAPGKERELVAAITRGGSTNYADSVKGRFTISRDNAKNTVYLQMNSLKPEDTAVYYCAVRGGYTWPTYNYWGQGTQVTVSS | high polyreactivity
QVQLVESGGGLVQAGGSLRLSCAASGRIFRYYAMGWYRQAPGKERELVASISSGGSTNYADSVKGRFTISRDNAKNTVYLQMNSLKPEDTAVYYCATVRRSTGGRLYYWGQGTQVTVSS | high polyreactivity
QVQLVESGGGLVQAGGSLRLSCAASGRIFRYYAMGWYRQAPGKERELVASITYSGGRTNYADSVKGRFTISRDNAKNTVYLQMNSLKPEDTAVYYCNSAYVYYYPHYRYAPTAVDYDYWGQGTQVTVSS | low polyreactivity
QVQLVESGGGLVQAGGSLRLSCAASGRIFRYYAMGWYRQAPGKERELVATISSSGGSTYYADSVKGRFTISRDNAKNTVYLQMKSLKPEDTAVYYCAADWYGYRQFHGYYWGQGTQVTVSS | high polyreactivity
QVQLVESGGGLVQAGGSLRLSCAASGRIFRYYAMGWYRQAPGKERELVAVISSSGGSTNYADSVKGRFTISRDNAKNTVYLQMNSLKPEDTAVYYCNAYGAYGGTGDYWGQGTQVTVSS | high polyreactivity
QVQLVESGGGLVQAGGSLRLSCAASGRIFRYYAMGWYRQSPGKEREFVAAINWSGGSTYYADSVKGRITISRDNAKNTVYLQMNSLKREDTAVYYCAALITQSYDYWGQGSQVTVSS | high polyreactivity
QVQLVESGGGLVQAGGSLRLSCAASGRIFRYYDMGWYRPAPGKERELVAAINSGGSTKYADSVKGRFTISRDNAKNTVYLQMNSLKPEDTAVYYCAADKARAWGYDYWGQGTQVTVSS | high polyreactivity
QVQLVESGGGLVQAGGSLRLSCAASGRIFRYYDMGWYRQAPGKEREFVAAITRSGAITYYADSVKGRFTISRDNAKNTVYLQMNSLKPEDTAVYYCAARYWSKFGYWGQGTQVTVSS | low polyreactivity
QVQLVESGGGLVQAGGSLRLSCAASGRIFRYYTMGWYRPAPGKERELVAAISWTGASTYYADSVKGRFTISRDNAKNTVYLQMNSLKPEDTAVYYCAADSYIAHHGFAMDYWGQGTQVTVSS | low polyreactivity
QVQLVESGGGLVQAGGSLRLSCAASGRIFRYYVMGWYRQAPGKEREFVASISGRGASTYYADSVKGRFTISRDNAKNTVYLQMNSLKPEDTAVYYCNADVWLLSYFPEYDYWGQGTQVTVSS | low polyreactivity
QVQLVESGGGLVQAGGSLRLSCAASGRIFRYYVMGWYRQAPGKERELVAAISRSGGTTYYADSVKGRFTISRDNAKNTVYLQMNSLKPEDTAVYYCAAVYGRDPGDYWGQGTQVTVSS | high polyreactivity
QVQLVESGGGLVQAGGSLRLSCAASGRIFRYYVMGWYRQAPGKERELVASITRVGRTNYADSVKGRFTISRDNAKNTVYLQMNSLKPEDTAFYYCAADVWWSTYRVTDDYWGQGTQVTVSS | high polyreactivity
QVQLVESGGGLVQAGGSLRLSCAASGRIFSAYTMGWYRQAPGKERELVAAITWSGGTTYYADSVKGRFTISRDNAKNTVYLQINSLKPEDTAVYYCAAESSWYVLYGSYYRSGLEYWGQGTLVTVSS | low polyreactivity
